# Measurements from US12312417B2, “Binding proteins 1” (Nucleus Therapeutics Pty. Ltd., priority 2017, dated 2025).
# B1: Variant 13: cell penetrating anti-DNA humanized di-scFv, SEQ ID NO: 41 (protein)
# scFv: DIQMTQSPSSLSASLGDRATITCRASKTVSTSSYSYMHWYQQKPGQPPKLLIKYASYLESGVPSRFSGSGSGTDFTLTISSLQPEDAATYYCQHSREFPWTFGGGTKVEIKRADAAPGGGGSGGGGSGGGGSEVQLVESGGGLVQPGGSLRLSCAASGFTFSNYGMHWVRQAPGKGLEWVSYISSGSSTIYYADSVKGRFTISRDNAKNSLYLQMNSLRAEDTAVYYCARRGLLLDYWGQGTTVTVSSASTKGPSVFPLAPLESSGSDIQMTQSPSSLSASLGDRATITCRASKTVSTSSYSYMHWYQQKPGQPPKLLIKYASYLESGVPSRFSGSGSGTDFTLTISSLQPEDAATYYCQHSREFPWTFGGGTKVEIKRADAAPGGGGSGGGGSGGGGSEVQLVESGGGLVQPGGSLRLSCAASGFTFSNYGMHWVRQAPGKGLEWVSYISSGSSTIYYADSVKGRFTISRDNAKNSLYLQMNSLRAEDTAVYYCARRGLLLDYWGQGTTVTVSS
# modifications: Variant 13
# Tests used:
# [1] = tested on: HDR-proficient DLD1 cells; assay: Cell death in HDR-proficient cells, di-scFv with PARP inhibitor; assay type: cell-based; settings: 5 nM olaparib, 10 μM di-scFv, or both
# Protocol: Homology-directed repair (HDR) deficient BRCA2-DLD1 cells and PTEN-U251 cells were treated with control, 5 nM olaparib, 10 μM di-scFv, or 10 μM di-scFv+5 nM olaparib. Surviving fraction was determined by colony formation assay.
# It was then determined whether the combination of di-scFv and olaparib is simply universally cytotoxic, regardless of DNA repair status. To evaluate this possibility, HDR-proficient DLD1 cells were treated with the above regimen to confirm selectivity of combination therapy to HDR-deficient malignant cells.
# [2] = tested on: PTEN-deficient U251 human glioma cells; assay: Phospho-53BP1 foci accumulation (DNA damage); assay type: cell-based; settings: for mean number of phospho-53BP1 foci per cell: PTEN-deficient U251
# Protocol: A matched pair of PTEN-proficient and deficient U251 human glioma cells were treated with control media or media containing Variant 10, 11, 13, 15, or 16 for twenty-four hours. Cells were then washed, fixed, blocked, and then probed with an anti-phospho-53BP1 antibody overnight. Cells were then washed and incubated with an AlexaFluor555-conjugated secondary antibody. Finally, cells were washed, counterstained with DAPI, and visualized under a fluorescence microscope. Images were saved and evaluated by CellProfiler to determine mean number of phospho-53BP1 foci per cell.
# (§1) A matched pair of BRCA2-proficient and deficient DLD1 colon cancer cells and PTEN-proficient and deficient U251 human glioma cells were treated with control media or media containing 10 μM di-scFv variant 13 (SEQ ID NO: 41), 5 nM olaparib, or combination treatment.
# MCF-7 cells = assay: Nuclear penetration by protein L immunostain of fixed cells; assay type: cell-based
# Protocol: (§2) DLD-1 and MCF-7 cells were treated with control or di-scFv (SEQ ID NO: 41), and nuclear penetration was evaluated by protein L immunostain of fixed cells.
# DLD-1 cells = assay: as above; assay type: cell-based
# Protocol: as §2
# [3] = tested on: human GBM cancer stem cells (CSCs) grown as tumour spheres; assay: GBM tumour sphere penetration and sphere volume; assay type: cell-based
# Protocol: GBM cancer stem cells extracted from primary human GBM tumours from patients and grown as spheres were treated with control or di-scFv (SEQ ID NO: 41), and the effect of dose and incubation time on reduction of sphere volume was evaluated by confocal micrographs of DX1-rhodamine cellular penetration into GBM cells. Tumour spheres are recognised as a useful tool for pre-clinical studies as they retain tumour heterogeneity and more closely represent the original patient tumour.
# [4] = tested on: PTEN-deficient U87 human glioma cells; assay: Cell viability by Trypan blue exclusion assay; assay type: cell-based; settings: 7 days after treatment; relative to control treated cells
# Protocol: Cell viability of PTEN-deficient U87 human glioma cells was also assessed following treatment with control media or media containing Variants 10, 13, 15, or 16. Cell viability was determined 7 days after treatment using Trypan blue exclusion assay and by direct visualization of cell morphology by light microscopy.
# DLD1 colon cancer cells = assay: Alkaline phosphatase-based survey of nuclear penetration; assay type: cell-based; settings: cells treated for one hour; right shift of histogram peak
# Protocol: DLD1 colon cancer cells were treated with control media or each of the indicated variants for one hour. Cells were then washed, fixed, blocked with 1% BSA-TBST, and then probed with protein L for one hour. Cells were then washed and incubated with an anti-protein L primary antibody for one hour. After another round of washing cells were incubated with an alkaline phosphatase-conjugated secondary antibody for one hour. Finally, cells were washed and signal was developed by addition of NBT/BCIP. Dark stain indicates location of the variants.
# Raw integrated density values reflecting nuclear alkaline phosphatase staining in the DLD1 cells from the experiment in FIG. 3 were obtained by analysis using ImageJ Boxplots of distributions of values are presented for each variant in FIG. 4.
# Histogram plots of cell counts versus nuclear staining intensity (represented as reciprocal intensity in arbitrary units) are shown in FIG. 5.
# [5] = tested on: BRCA2-proficient DLD1 colon cancer cells; assay: Cell viability by Trypan blue exclusion assay; assay type: cell-based; settings: 7 days later
# Protocol: (§3) Next, a matched pair of BRCA2-proficient and deficient DLD1 colon cancer cells was treated with control media or media containing Variants 10, 13, 15, or 16. Cell viability was determined 7 days later by Trypan blue exclusion assay and by direct visualization of cell morphology by light microscopy. […] Representative light microscope images shown the changes in morphology in the BRCA2-deficient cancer cells treated with the variants are shown in FIG. 10, Panel A. Quantitative analysis of the cell survival by Trypan blue exclusion assay is shown in FIG. 10, Panel B.
# [6] = tested on: BRCA2-deficient DLD1 colon cancer cells; assay: Cell viability by Trypan blue exclusion assay; assay type: cell-based; settings: 7 days later
# Protocol: as §3
# [7] = tested on: GBM cells extracted from human GBM tumours; assay: Orthotopic mouse model of GBM; assay type: in vivo
# Protocol: An orthotopic mouse model of GBM was generated by intracranial injection of GBM cells extracted from human GBM tumours. Once the tumours developed in the brain, mice were treated by tail vein injection of control or di-scFv variant 13 (SEQ ID NO: 41), and effect of di-scFv on reduction of tumour volume was evaluated by extraction of tumours. […] To confirm this, tumours and normal brain were probed for di-scFv by protein L immunostaining.
# Mean survival data reflected these trends (83 days±3.2 days for di-scFv treated mice, 71 days±1.2 days for controls) (FIG. 16E). Statistical analysis indicated a significant difference between the two groups, with P value=0.004.
# [8] = tested on: Primary human glioblastoma (GBM) cancer cells; assay: Live cells by trypan blue staining in primary GBM explants; assay type: cell-based; settings: seven patient explants; percentage of live cells by trypan blue
# Protocol: Primary human glioblastoma (GBM) cancer cells extracted from primary human GBM tumours from patients were treated with control or di-scFv (SEQ ID NO: 41), and percentage of live cells was evaluated by trypan blue staining.
# [9] = tested on: BRCA2-deficient DLD1 colon cancer cells; assay: Phospho-53BP1 foci accumulation; assay type: cell-based
# Protocol: as §1
molecule,measurement,setting,value
"O=C(c1cc(Cc2n[nH]c(=O)c3ccccc23)ccc1F)N1CCN(C(=O)C2CC2)CC1 [olaparib, reference compound]",cell death,[1],remain resistant
B1,percentage of P53BP1-positive cells,"[2]; HDR-deficient U251, 24 hour",increased
same,mean number of phospho-53BP1 foci per cell,"[2]; 10 μM di-scFv, 5 nM olaparib",increased the number of phospho-53BP1 foci
same,mean number of phospho-53BP1 foci per cell,"[2]; twenty-four hours, vs control media",increased the number of foci
same,nuclear penetration,MCF-7 cells,successfully penetrated
same,nuclear penetration,DLD-1 cells,successfully penetrated
same,cellular penetration in GBM spheres,"[3]; confocal micrographs, DX1-rhodamine",demonstrated cellular penetration in GBM spheres
same,sphere volume,[3]; effect of dose and incubation time,reduced sphere volume in dose-dependent and time-dependant manner
same,cell viability,[4],reductions in cell viability
same,cell death,[1],No effect on cell death
same,nuclear penetration relative to the yeast prototype (histogram of cell counts versus nuclear staining intensity),DLD1 colon cancer cells,notable right shift and narrowing of distributions
same,cell viability / toxicity,[5],not toxic
same,cell viability / toxicity,[6],killed by the variants
same,median survival,[7]; group of 7 mice,87 days
same,median survival longer than controls,"[7]; group of 7 mice, controls median 72 days",more than 20%
same,crossing of the blood brain barrier,"[7]; mouse, in vivo",successfully crossed the blood brain barrier
same,di-scFv in GBM tumour cells by protein L immunostaining,"[7]; mouse, in vivo",detected in the nuclei of GBM tumour cells
same,di-scFv in adjacent normal brain cells by protein L immunostaining,"[7]; mouse, in vivo",not evident
same,toxicity or weight loss,[7]; survival study mice,No toxicity or weight loss
same,TUNEL staining (incidence of apoptosis in tumours),[7]; tail vein injection,increased incidence of apoptosis
same,glioblastoma tumour size smaller than in control mice,"[7]; tail vein injection, brain sections",more than 40%
same,glioblastoma tumour explants showing significant cancer cell death,[8],Five of the seven
same,mean number of phospho-53BP1 foci per cell,"[9]; BRCA2-deficient DLD1, 10 μM di-scFv, 5 nM olaparib",increased the number of phospho-53BP1 foci
same,percentage of P53BP1-positive cells,"[9]; HDR-deficient DLD1, 24 hour",increased
